Experimental findings from article PMC8519567 are described below.

Where two headings read alike, the source gives them in different places.

A word on the Kd: it is a measure of binding affinity in units of concentration.

In series [1] the test system is SMARCAD1 (dephosphorylated with CIP) (Homo sapiens). In words: FP.
Series [2] has as its target histones: H3-H4 (Alexa Fluor 488–H4) and H2A-H2B (Atto647N H2B) mixed at 10 nM (human). As to the kind of experiment: FRET or BRET.
Series [3] has the same target. As to the kind of experiment: FRET or BRET. This is another data set of the same source.
Series [4] has as its target 7 N11 nucleosome labeled at H4 E63C with Alexa Fluor 488 (human) (UniProt P04908). As to the kind of experiment: fluorescence polarisation.
Series [5] deals with refolded histones H3-H4 labeled with Alexa Fluor 488 on H4 (human) (UniProt P68431). As to the kind of experiment: fluorescence polarisation. In general terms: Polarisation of emitted light reports the rotation of a fluorescent probe.

In turn, “7N11 nucleosome (165 bp), Alexa Fluor 488 at H4 E63C” registered a Kd in series [1] of 90 nM.
Same read-out and setting: as for 147-bp 601 DNA, the figure is 80 nM.
TLH3 nucleosome (tailless H3) displayed a dissociation constant Kd in series [1] (H3 N-terminal tail deleted) of 330 nM.
Substance TLH4 nucleosome (tailless H4) yielded a dissociation constant Kd in series [1] (H4 N-terminal tail deleted) of 110 nM.
As to “dephosphorylated SMARCAD1 (from UniProt Q9H4L7 1-1026) (enzyme)”, the Kd was found to be 2.1 nM in series [2], 1.3 nM in series [3], 90 nM in series [4] and 4 nM in series [5].
